This passage reports Km results from PMC12111007, “Potential of Hyperthermophilic L-Asparaginase from Thermococcus sibiricus to Mitigate Dietary Acrylamide Assessed Using a Simplified Food System” (Foods, 2025).

Substrate in the series: NC(=O)C[C@H](N)C(=O)O
The series is described as follows: direct Nesslerization (ammonia release). It counts as biochemical, Thermococcus sibiricus. The following applies: 90 °C, substrate not named beside the constant, taken as L-asparagine, pH not stated for the kinetics.

B1: TsAI (hyperthermophilic L-asparaginase from Thermococcus sibiricus) (Thermococcus sibiricus MM 739) (protein)
chain: MKKLLIIGTGGTIASAKTEQGYKSVLKIDEILKLAKIKLENGYKIDSTNIMNIDSTLIHPEDWEIIAKEVFKALDDYDGIIITHGTDTLAYTASMLSFMIKNPNKPIVLTGSMLPITENGSDAPRNIRTAIKFAMEDVAGVFVAFMDKIMLGCRTSKVRTLGLNAFMSINYPDVAYVKGEKILYNIPKEKFQPNGSPELDTKYEPRVVVLRVTPGLGGEIIDAVLDAGYKGIVLEGYGAGGLPYRKSNLLSKIKEITPKIPVIMTTQALYDGVDMRKYEVGRKALETGIIPAKDMTKEATITKLMWALGHTKDVEKIREIMHTNYVNEIKS
As usually defined, the Km is the substrate concentration at which the rate is half of its maximum. Turning to B1, the Michaelis constant (Km) amounted to 3.8 mM.
